Our source for the Kd values is paper PMC7051184 (2020).

By Kd is commonly meant the free concentration of one partner at which half of the binding sites on the other are occupied at equilibrium, for simple one-to-one binding. A lower Kd goes with a tighter complex.

In this assay the target is 6His-S-Importin β(1-876), full-length WT human importin β (human, UniProt Q14974 1-876). The experiment in a line: FRET; displacement of importin β-bound Rango.
Sequence of 6His-S-Importin β(1-876), full-length WT human importin β (Q14974 whole entry): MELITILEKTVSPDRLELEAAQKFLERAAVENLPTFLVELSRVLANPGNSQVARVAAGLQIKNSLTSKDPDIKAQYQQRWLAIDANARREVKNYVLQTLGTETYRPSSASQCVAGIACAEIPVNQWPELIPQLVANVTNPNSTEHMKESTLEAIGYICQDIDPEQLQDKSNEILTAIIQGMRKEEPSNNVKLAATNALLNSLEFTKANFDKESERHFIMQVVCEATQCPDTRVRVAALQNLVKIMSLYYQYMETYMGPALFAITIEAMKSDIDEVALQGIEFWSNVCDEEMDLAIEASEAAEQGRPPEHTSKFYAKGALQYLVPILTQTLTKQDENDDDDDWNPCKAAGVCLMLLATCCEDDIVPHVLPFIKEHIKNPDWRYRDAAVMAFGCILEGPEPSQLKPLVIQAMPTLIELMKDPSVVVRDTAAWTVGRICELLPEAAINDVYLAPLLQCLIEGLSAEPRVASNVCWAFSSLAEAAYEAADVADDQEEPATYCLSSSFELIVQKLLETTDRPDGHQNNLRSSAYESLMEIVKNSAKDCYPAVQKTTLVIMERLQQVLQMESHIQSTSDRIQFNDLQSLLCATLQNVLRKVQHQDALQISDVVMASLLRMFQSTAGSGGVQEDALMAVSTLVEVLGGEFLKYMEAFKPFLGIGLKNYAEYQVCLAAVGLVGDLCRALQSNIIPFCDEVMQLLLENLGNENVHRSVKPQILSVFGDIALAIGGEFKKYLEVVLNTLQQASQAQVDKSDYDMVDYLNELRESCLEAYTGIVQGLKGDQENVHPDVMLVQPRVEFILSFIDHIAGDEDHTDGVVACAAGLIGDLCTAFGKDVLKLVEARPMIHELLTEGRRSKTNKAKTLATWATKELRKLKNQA

In turn, PRPRPRPRPRPRPRPRPRPRKC showed a Kd of 8.2 nM.
